# Measurements as given in patent US20230093399A1, “METHODS FOR GENERATING PLURIPOTENT STEM CELL-DERIVED BROWN FAT CELLS” (AgeX Therapeutics, Inc., priority 2013, published 2023).
# B1: BMP4: Bone Morphogenetic Protein 4, TGF-beta superfamily member (protein, UniProt P12644 293-408, looked up)
# Bone morphogenetic protein 4: SPKHHSQRARKKNKNCRRHSLYVDFSDVGWNDWIVAPPGYQAFYCHGDCPFPLADHLNSTNHAIVQTLVNSVNSSIPKACCVPTELSAISMLYLDEYDKVVLKNYQEMVVEGCGCR
# What was measured:
# Format in all cases: cell-based, human
# cell line E72 = assay: Differentiation of cell line E72 in HyStem, gene expression
# Protocol: (§1) HyStem-C (BioTime, Inc. Alameda, Calif.) (BioTime, Alameda, Calif., USA) was reconstituted following the manufacturer's instructions. Briefly, the HyStem component (thiol modified hyaluronan, 10 mg) was dissolved in 1.0 ml degassed deionized water for about 20 minutes to prepare a 1% w/v solution. The Gelin-S component (thiol modified gelatin, 10 mg) was dissolved in 1 ml degassed deionized water to prepare a 1% w/v solution, and PEGDA (PEG diacrylate, 10 mg) was dissolved in 0.5 ml degassed deionized water to prepare a 2% w/v solution. HyStem (1 ml, 1% w/v) was mixed with Gelin-S (1 ml, 1% w/v) immediately before use. Pelleted cells were resuspended in recently prepared HyStem:Gelin-S (1:1 v/v) mix described above. Upon the addition of crosslinker PEGDA, the cell suspension, at a final concentration of 2.0×10^7 cells/ml, was aliquoted at 25 μl aliquot four to five times into each well of 6 well plates (Corning 3516) after partial gelation to form attached beads. Following complete gelation (20 minutes), chondrogenic medium was added to each well (i.e about 4 ml/each well of a 6 well plate). […]
# (§2) The Gelin-S® component (10 mg of thiol-modified gelatin (BioTime)) is dissolved in 1.0 ml of degassed deionized water to prepare a 1% w/v solution, and polyethylene glycol diacrylate (10 mg of PEGDA) is dissolved in 0.5 ml of degassed deionized water to prepare a 2% w/v solution. […] At the desired time point, hydrogel constructs were either fixed and processed for immunohistochemical analysis or lysed using RLT (Qiagen, CA, USA) with 1% beta-mercaptoethanol for total RNA to analyze transcript expression using quantitative real-time PCR (qRT-PCR) and/or whole-genome microarray.
# (§3) Total RNA was extracted directly from cells growing in 6-well plates or 10 cm tissue culture dishes using Qiagen RNeasy mini kits according to the manufacturer's instructions. RNA concentrations were measured using a Beckman DU530 or Nanodrop spectrophotometer and RNA quality was determined by denaturing agarose gel electrophoresis or using an Agilent 2100 bioanalyzer. […] The cRNA was hybridized to Illumina BeadChips, processed, and read using a BeadStation array reader according to the manufacturer's instructions (Illumina, San Diego, Calif., USA).
# cell line E75 = assay: Differentiation of cell line E75 in HyStem, gene expression
# Protocol: as §1, §2, §3
# cell line E3 = assay: Differentiation of clonal hEP cell line E3 in HyStem beads, Illumina microarray gene expression; conditions: E3
# Protocol: Differentiation medium is high glucose DMEM (CellGro Cat. No. 15-013-CV) with Pyruvate, 1 mM (Gibco Cat. 11360), Pen:Strep 100U/ml:100 ug/ml (Gibco Cat. No. 504284), Glutamax 2 mM (Gibco Cat. No. 35050), Dexamethasone 0.1 uM (Sigma, St. Louis, Mo., Cat. No. D1756-100), L-Proline 0.35 mM (Sigma Cat. No. D49752), 2-phospho-L-Ascorbic Acid 0.17 mM (Sigma, Cat. No. 49792, Fluka), and ITS Premix (BD, Franklin Lakes, N.J., sterile Cat. No. 47743-628) with a final concentration 6.25 ug/ml insulin, 6.25 ug/ml transferrin, 6.25 ng/ml selenious acid, serum albumin 1.25 mg/ml, 5.35 ug/ml linoleic acid. In various differentiation conditions, the Differentiation medium is supplemented with various growth factors or other differentiation factors as described herein.
# The Gelin-S® component (10 mg of thiol-modified gelatin (BioTime)) is dissolved in 1.0 ml of degassed deionized water to prepare a 1% w/v solution, and polyethylene glycol diacrylate (10 mg of PEGDA) is dissolved in 0.5 ml of degassed deionized water to prepare a 2% w/v solution. Then, HyStem (1 ml, 1% w/v) is mixed with Gelin-S (1 ml, 1% w/v) immediately before use. Pelleted cells are resuspended in the recently prepared HyStem:Gelin-S (1:1 v/v) mix described above. Upon the addition of the PEGDA cross-linker, the cell suspension, at a final concentration of 2.0×10^7 cells/ml is aliquoted (25 μl/aliquot) into six-well plates (Corning® 3516; VWR, PA, USA) after partial gelation. Following complete gelation (20 min), Differentiation Medium is added to each well. Plates were then placed in a humidified incubator at 37° C. with ambient O2 and 10% CO2, and the cells were fed three-times weekly. At the desired time point, hydrogel constructs were either fixed and processed for immunohistochemical analysis or lysed using RLT (Qiagen, CA, USA) with 1% beta-mercaptoethanol for total RNA to analyze transcript expression using quantitative real-time PCR (qRT-PCR) and/or whole-genome microarray.
# Total RNA was extracted directly from cells growing in 6-well plates or 10 cm tissue culture dishes using Qiagen RNeasy mini kits according to the manufacturer's instructions. RNA concentrations were measured using a Beckman DU530 or Nanodrop spectrophotometer and RNA quality was determined by denaturing agarose gel electrophoresis or using an Agilent 2100 bioanalyzer. Whole-genome expression analysis was carried out using Illumina Human Ref-8v3 or Human HT-12 v4 BeadArrays, and RNA levels for certain genes were confirmed by qRT-PCR. For the Illumina BeadArrays, total RNA was linearly amplified and biotin-labeled using Illumina TotalPrep kits (Life Technologies, Temecula, Calif., USA), and cRNA was quality-controlled using an Agilent 2100 Bioanalyzer. The cRNA was hybridized to Illumina BeadChips, processed, and read using a BeadStation array reader according to the manufacturer's instructions (Illumina, San Diego, Calif., USA). Values of less than 120 relative fluorescence units (RFUs) were considered as nonspecific background signal.
molecule,measurement,setting,value
B1,"markers normally associated with enamel, enamelin (ENAM) and amelogenin (AMELX)","cell line E72; E72, HyStem in the presence of BMP4 and TGFβ3",expressed the markers normally associated with enamel
same,"markers of endochondral ossification including COL2A1, ALPL, IBSP, and osteopontin (SPP1)","cell line E72; E72 passage 11, 21 days in HyStem with 10 ng/mL TGFβ3 together with BMP4 (10 ng/mL) or BMP2 (50 ng/mL)",relatively high levels
same,adipocyte markers FABP4 and CD36,"cell line E72; E72 passage 12, 21 days in HyStem with 10 ng/mL BMP4",relatively high levels
same,ameloblastin (AMBN) expression,"cell line E75; E75, 21 days HyStem, BMP4 and TGFβ3",expressed the additional marker normally associated with enamel called ameloblastin
same,"markers normally associated with enamel, enamelin (ENAM) and amelogenin (AMELX)","cell line E75; E75, HyStem in the presence of BMP4 and TGFβ3",expressed the markers normally associated with enamel
same,adipocyte markers FABP4 and CD36 and candidate BAT cell progenitor markers such as C19orf80,"cell line E75; E75 passage 11, 21 days in HyStem with 10 ng/mL BMP4",relatively high levels
same,"markers of endochondral ossification including COL2A1, ALPL, IBSP, and osteopontin (SPP1)","cell line E75; E75 passage 11, 21 days in HyStem with 10 ng/mL TGFβ3 together with BMP4 (10 ng/mL) or BMP2 (50 ng/mL)",relatively high levels
same,expression of C19ORF80 transcript,"cell line E3; HyStem beads supplemented with 10 ng/ml BMP4, FIG. 2",highest expression
same,PCK1 transcript expression,"cell line E3; HyStem beads with 10 ng/ml BMP4 or 100 ng/ml BMP7, FIG. 5",relatively high levels
